Laboratory results taken from PMC12806343, “Aptamer‐Engineered Ellipsometry for Clinical Detection of BALF‐Derived Exosomes: Multi‐Level Engineering for Prognostic Evaluation of Immunotherapy Responses”.

How the values were obtained:
recombinant human PD-L1 = recombinant human PD-L1 (Homo sapiens, UniProt Q9NZQ7 19-238); assay: BLI; PD-L1 immobilized on AR probe; BLI: 1x PBS pH 7.4, aptamers 3-12 uM, 300 s association, 600 s dissociation, temperature not stated; EMSA: TBE-PAGE, binding buffer composition not given; conditions: protein: commercial; stem-loop
[1] = target: PD-L1 on MDA-MB-231-derived exosomes (UniProt Q9NZQ7 19-290); assay: ellipsometry (DP-SIS); exosomes 1e1-1e8 particles/mL; no detectable signal; BLI: 1x PBS pH 7.4, aptamers 3-12 uM, 300 s association, 600 s dissociation, temperature not stated; EMSA: TBE-PAGE, binding buffer composition not given; conditions: protein: native; stem-loop
Sequence of PD-L1 on MDA-MB-231-derived exosomes (Q9NZQ7 19-290): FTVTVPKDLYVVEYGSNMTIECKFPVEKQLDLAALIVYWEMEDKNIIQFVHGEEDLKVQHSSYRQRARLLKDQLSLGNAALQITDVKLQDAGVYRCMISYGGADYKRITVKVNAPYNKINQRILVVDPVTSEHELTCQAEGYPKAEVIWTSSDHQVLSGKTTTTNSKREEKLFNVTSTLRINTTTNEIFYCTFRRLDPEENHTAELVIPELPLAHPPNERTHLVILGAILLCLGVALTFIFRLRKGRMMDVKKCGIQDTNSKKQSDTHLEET

Sequence of recombinant human PD-L1 (Q9NZQ7 19-238): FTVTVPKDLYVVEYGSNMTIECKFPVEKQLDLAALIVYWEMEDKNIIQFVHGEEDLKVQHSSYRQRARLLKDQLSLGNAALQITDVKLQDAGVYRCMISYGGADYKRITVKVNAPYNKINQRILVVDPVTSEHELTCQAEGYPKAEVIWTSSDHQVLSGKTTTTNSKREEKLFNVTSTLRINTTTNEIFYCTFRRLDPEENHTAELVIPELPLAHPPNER

| Binder | Kd (recombinant human PD-L1) [nM] | binding result [1] |
| --- | --- | --- |
| GTACCTGCTCTCCGCGCGAAGCACGCCAGGGACT (structured_DNA, 5' amine (NH2)) [Tr-Apt13] | ~991 | – |
| TGACACCGTACCTGCTCTCCGCGCGAAGCACGCCAGGGACTAT (structured_DNA, 5' amine (NH2)) [Apt13] | ~714 | – |
| ATAGTCCCTGGCGTGCTTGGTCGGCAGAGCAGGTACGGTGTCA (structured_DNA, 5' amine (NH2)) [Apt45] | ~186 | no binding |
